The target of experiment [1] is if4e_human EIF4E (UniProt P06730).
Experiment [2] shares this target. This is another data set of the same source.

if4e_human EIF4E, sequence (P06730 whole entry): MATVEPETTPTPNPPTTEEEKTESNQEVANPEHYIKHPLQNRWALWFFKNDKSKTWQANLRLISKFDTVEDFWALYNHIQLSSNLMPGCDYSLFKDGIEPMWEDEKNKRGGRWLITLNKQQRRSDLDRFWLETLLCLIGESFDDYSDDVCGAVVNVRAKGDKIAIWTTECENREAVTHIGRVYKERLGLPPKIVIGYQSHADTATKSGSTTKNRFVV

As for “Leucine-rich PPR motif-containing protein, mitochondrial (Homo sapiens) (from UniProt P42704) Y441A”, the “effect of a mutation on the interaction” value with if4e_human EIF4E [1] was “disrupting interaction”.

For the substance “Leucine-rich PPR motif-containing protein, mitochondrial (Homo sapiens) (from UniProt P42704) Y583A”, the “effect of a mutation on the interaction” value with if4e_human EIF4E [2] is “disrupting interaction”.

The values above are taken from IntAct's records for PubMed 19262567.
